Results: patent US20240092919A1 (Ablynx, published 2024)

Key:
[1] = target: T1, Cynomolgus T cell receptor on the HSC-F cynomolgus T cell line (cynomolgus monkey); experiment: flow cytometry competition with Flag3-His6-tagged anti-TCR ISVD ligand, HSC-F cells
T1 construct: whole, on cells; also called HSC-F cells; HSC-F cyno T cell line (NIBIO JCRB1164)
Description: (§2) Subsequently, cells were resuspended in FACS buffer supplemented with 1 μg/ml Propidium Iodide (PI, Sigma, P4170) to distinguish live from dead cells. Cells were analyzed using a FACS Array flow cytometer (BD Biosciences) using Flowing Software. First a P1 population which represented more than 80% of the total cell population was selected based on FSC-SSC distribution. In this gate, 10000 cells were counted during acquisition. From this population the Propidium iodide or TO-PRO©-3 Iodide positive cells (dead cells) were excluded and the median or Mean PE value was calculated.

[2] = target: T2, Human T cell receptor on human primary T cells (human, UniProt P01848 1-140; P01850 1-176); experiment: flow cytometry competition with Flag3-His6-tagged anti-TCR ISVD ligand, human primary T cells
T2 construct: whole, on cells
Description: as §2
T2 TCR alpha (looked up): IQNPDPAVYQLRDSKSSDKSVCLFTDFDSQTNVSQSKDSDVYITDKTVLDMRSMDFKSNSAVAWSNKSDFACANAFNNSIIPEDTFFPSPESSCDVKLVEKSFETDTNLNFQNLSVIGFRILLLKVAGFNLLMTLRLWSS
T2 TCR beta (looked up): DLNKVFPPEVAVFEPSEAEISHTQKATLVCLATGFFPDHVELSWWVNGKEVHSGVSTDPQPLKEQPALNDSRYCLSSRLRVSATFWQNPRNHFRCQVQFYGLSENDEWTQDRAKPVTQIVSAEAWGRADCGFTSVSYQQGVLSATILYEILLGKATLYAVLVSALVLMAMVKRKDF

[3] = target: T3, Cynomolgus TCR(AEA41865/AEA41866)-zipper protein (cynomolgus monkey); experiment: SPR off-rate, ProteOn XPR36, immobilised TCR-zipper
T3 construct: also called cyTCR-zipper protein; cynoTCR zipper
T3 TCR alpha: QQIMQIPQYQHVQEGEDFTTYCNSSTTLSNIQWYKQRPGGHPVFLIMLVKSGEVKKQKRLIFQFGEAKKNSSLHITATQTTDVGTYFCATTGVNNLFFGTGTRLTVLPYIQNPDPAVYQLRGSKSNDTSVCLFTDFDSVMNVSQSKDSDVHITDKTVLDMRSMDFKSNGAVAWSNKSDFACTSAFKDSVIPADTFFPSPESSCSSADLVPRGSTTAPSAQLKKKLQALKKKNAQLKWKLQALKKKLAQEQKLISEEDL
T3 TCR beta: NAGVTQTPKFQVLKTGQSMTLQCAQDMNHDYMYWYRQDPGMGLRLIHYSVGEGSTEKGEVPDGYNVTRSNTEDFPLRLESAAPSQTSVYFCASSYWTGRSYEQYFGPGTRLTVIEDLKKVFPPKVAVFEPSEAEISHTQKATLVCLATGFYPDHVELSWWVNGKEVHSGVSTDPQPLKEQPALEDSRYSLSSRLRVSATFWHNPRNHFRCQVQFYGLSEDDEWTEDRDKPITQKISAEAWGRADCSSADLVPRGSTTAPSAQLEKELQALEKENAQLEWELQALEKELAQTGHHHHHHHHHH

[4] = target: T4, human T cell receptor on human primary T cells (human, UniProt P01848 1-140; P01850 1-176); experiment: flow cytometry, human primary T cells
T4 construct: whole, on cells
Description: Dose-dependent binding of the purified monovalent ISVD variants to CHO-K1 huTCR(2XN9)/huCD3 overexpressing cells or human primary T cells was evaluated by flow cytometry. […] Next, cells were washed 3 times with FACS buffer and incubated with 1 μg/ml THE™ His Tag Antibody, mAb, Mouse (Genscript, A00186) and washed again. […] Subsequently, cells were resuspended in FACS buffer supplemented with 5 nM TO-PRO®-3 Iodide to distinguish live from dead cells, which are removed during the gating procedure. Cells were analyzed using a FACS Array flow cytometer (BD Biosciences) and Flowing Software. First a P1 population which represented more than 80% of the total cell population was selected based on FSC-SSC distribution. In this gate, 10000 cells were counted during acquisition. From this population the TO-PRO®-3+ cells (dead cells) were excluded and the mean fluorescence intensity (MFI) PE value was calculated.
T4 TCR alpha (looked up): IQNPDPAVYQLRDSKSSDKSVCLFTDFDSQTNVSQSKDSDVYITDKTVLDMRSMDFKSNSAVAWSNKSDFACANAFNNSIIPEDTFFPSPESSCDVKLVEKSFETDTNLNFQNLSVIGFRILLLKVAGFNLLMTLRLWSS
T4 TCR beta (looked up): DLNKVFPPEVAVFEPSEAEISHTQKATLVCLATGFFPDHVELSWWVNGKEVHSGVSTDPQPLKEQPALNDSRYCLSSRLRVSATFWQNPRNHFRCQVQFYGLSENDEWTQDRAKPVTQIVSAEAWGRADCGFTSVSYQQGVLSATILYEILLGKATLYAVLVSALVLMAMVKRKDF

[5] = target: T5, cynomolgus CD33 on cells (cynomolgus monkey); experiment: flow cytometry on transfected cells, cynomolgus CD33 against human CD33
T5 construct: whole, on cells; also called CHO cy CD33; CHO Flp-In cynoCD33

[6] = target: T6, Cynomolgus TCR(AEA41865/AEA41866)-zipper protein (cynomolgus); experiment: SPR, ProteOn XPR36; TCR-zipper protein immobilised by amine coupling
T6 construct: also called cyTCR-zipper; cyTCR(AEA41865)-zipper
T6 TCR alpha: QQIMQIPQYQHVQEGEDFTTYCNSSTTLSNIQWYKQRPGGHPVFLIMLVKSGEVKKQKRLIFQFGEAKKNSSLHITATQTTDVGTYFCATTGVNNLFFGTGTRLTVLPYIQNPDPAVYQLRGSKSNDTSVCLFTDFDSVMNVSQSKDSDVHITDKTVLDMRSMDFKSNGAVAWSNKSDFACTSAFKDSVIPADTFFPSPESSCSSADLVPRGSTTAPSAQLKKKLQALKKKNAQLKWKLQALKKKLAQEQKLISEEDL
T6 TCR beta: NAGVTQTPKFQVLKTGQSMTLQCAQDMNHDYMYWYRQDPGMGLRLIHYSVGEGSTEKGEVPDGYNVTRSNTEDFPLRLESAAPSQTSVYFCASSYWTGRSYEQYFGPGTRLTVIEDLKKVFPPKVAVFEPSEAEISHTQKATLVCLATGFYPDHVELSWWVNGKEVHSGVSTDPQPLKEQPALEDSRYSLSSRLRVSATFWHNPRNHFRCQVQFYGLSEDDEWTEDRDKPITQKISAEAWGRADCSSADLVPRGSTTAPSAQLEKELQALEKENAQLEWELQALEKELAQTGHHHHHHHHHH
Description: Purified ISVDs were injected for 2 minutes (flow rate 45 μL/min) at different concentrations (between 0.2 nM and 200 nM) and dissociation was followed for 900 s. Regeneration was performed by injecting 3 M MgCl₂ for 3 minutes (flow rate 90 μL/min). […] Processed sensorgrams were analyzed based on the 1:1 interaction model (Langmuir binding model) using ProteOn Manager 3.1.0 (Version 3.1.0.6) software.

[7] = target: T7, human TCR on primary human T cells (human, UniProt P01848 1-140; P01850 1-176); experiment: flow cytometry competition on primary human T cells; competitor Flag-tagged T017000624 at EC30
T7 construct: whole, on cells; also called human TCRαβ
T7 TCR alpha (looked up): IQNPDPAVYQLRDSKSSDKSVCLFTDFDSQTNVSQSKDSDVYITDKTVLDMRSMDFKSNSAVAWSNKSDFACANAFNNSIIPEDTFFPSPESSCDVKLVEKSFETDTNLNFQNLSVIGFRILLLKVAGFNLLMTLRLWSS
T7 TCR beta (looked up): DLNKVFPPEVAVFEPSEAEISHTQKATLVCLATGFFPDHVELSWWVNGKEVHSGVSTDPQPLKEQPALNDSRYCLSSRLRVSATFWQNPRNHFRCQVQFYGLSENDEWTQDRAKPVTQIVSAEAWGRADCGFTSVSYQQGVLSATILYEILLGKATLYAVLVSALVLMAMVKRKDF
Description: (§1) T cells (human T cells obtained as described in Example 3 and cyno T cells purchased from LPT laboratory, Germany) were thawed and counted on the day of the assay and diluted to a concentration of 1E+06 cells/mL, before adding 75 μL to the wells of a V-bottom 96-well plate (Greiner, cat no 651180). Cells were washed once with cold FACS buffer, before adding 25 μL Nb and 25 μL competitor to the wells. […] Cells were resuspended and plates were incubated at 4° C. for 90 minutes, after which plates were washed twice in cold FACS buffer. […] Plates were washed twice in cold FACS buffer. […] Plates were washed twice in cold FACS buffer. Cells were resuspended in 55 μL 1/1000 diluted Propidium Iodide (Sigma-Aldrich, cat no P4170) in FACS buffer before acquiring data on the MACSQuant X (Miltenyi biotec).

[8] = target: T8, cynomolgus TCR on primary cynomolgus T cells (cynomolgus); experiment: flow cytometry competition on primary cynomolgus T cells; competitor Flag-tagged T017000623 at EC30
T8 construct: whole, on cells; also called cyno TCRαβ
Description: as §1

B1: T017000681 (VHH)
VHH: DVQLVESGGGVVQPGGSLRLSCVASGYVHKINFYGWYRQAPGKEREKVAHISIGDQTDYADSAKGRFTISRDESKNTVYLQMNSLRPEDTATYYCRALSRIWPYDYWGQGTLVTVSS
For B1, which IC50 [1] is on record?
The IC50 was 730 nM.

And the IC50 [2]?
Its IC50 is 92 nM.

B2: T017000685 (VHH, not shown: small tags and cut ends)
VHH: EVQLVESGGGVVQPGGSLRLSCVASGEVHQINFYGWYRQAPGKEREKVAHISIGDQTDYADSAKGRFTISRDESKNTVYLQMNSLRPEDTALYYCRALSRIWPYDYWGQGTLVTVSS
B2 was tested. Which koff [3] did it give?
The koff was 0.00399 s⁻¹.

B3: T017000687 (VHH, not shown: small tags and cut ends)
VHH: EVQLVESGGGVVQPGGSLRLSCVASGSVHQINFYGWYRQAPGKEREKVAHISIGDQTDYADSAKGRFTISRDESKNTVYLQMNSLRPEDTALYYCRALSRIWPYDYWGQGTLVTVSS
For B3, which koff [3] is on record?
The koff was 0.00427 s⁻¹.

B4: T017000345 (VHH, not shown: small tags and cut ends)
VHH: EVQLVESGGGVVQPGGSLRLSCVASGDVHKINFLGWYRQAPGKEREKVAHISIGDQTDYADSAKGRFTISRDESKNMVYLQMNSLRPEDTALYYCRAFSRIYPYDYWGQGTLVTVSS
With B4 as the binder, how does the EC50 [4] read?
Its EC50 is 160 nM.

B5: monovalent CD33 building block (VHH)
VHH: EVQLVESGGGVVQPGGSLRLSCAASGGVFRLNSMGWFRQAPGKQRELVAIITSDGDTNYADSVKGRFTISRDQAKNTVYLQMNSLRPEDTALYYCQITYSTSSYSFPINTWGQGTLVTVSS
How did the “difference in EC50 between human and cynomolgus monkey” value [5] turn out when B5 was run?
Its value is less than 2 fold.

B6: T017000698 (bispecific antibody)
chain: DVQLVESGGGVVQPGGSLRLSCVASGYVHKINFYGWYRQAPGKEREKVAHISIGDQTDYADSAKGRFTISRDESKNTVYLQMNSLRPEDTAAYYCRALSRIWPYDYWGQGTLVTVSSGGGGSGGGSEVQLVESGGGVVQPGGSLRLSCAASGFTFRSFGMSWVRQAPGKGPEWVSSISGSGSDTLYADSVKGRFTISRDNSKNTLYLQMNSLRPEDTALYYCTIGGSLSRSSQGTLVTVSSA
notes: also called T017000680-9GS-ALB23002-A; TCE01-9GS-ALB23002-A
What does the source list for B6?
Kd [6]: 11 nM; IC50 [7]: 190 nM; IC50 [8]: 250 nM
